Data on three molecules can be found in publication PMC10397247.

Common to all, as to assay: two-hybrid library CCmax;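 note: natural log of median RNA to DNA barcode read ratio; higher means stronger binding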
The target of one experiment is T1, Core_IIII-es_KKKE.
T1 chain: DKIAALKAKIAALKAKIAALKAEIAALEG
The note with it: mean of both orientations.

The target in the next experiment is T2, Core_INNN-es_KEKE.
T2 chain: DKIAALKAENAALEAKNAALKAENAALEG
As to conditions: mean of both orientations.

For a further experiment, the target named is T3, Core_INII-es_KKKK.
T3 chain: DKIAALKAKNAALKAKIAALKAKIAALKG

For the molecule DEIAALEAEIAALEAEIAALEAKIAALKG [Core_IIII-es_EEEK], the interaction score with Core_IIII-es_KKKE was 2.4.
In the experiment with Core_INNN-es_KEKE, DEIAALEAKNAALKAENAALEAKNAALKG [Core_INNN-es_EKEK] had an interaction score of 2.
For DEIAALEAENAALEAEIAALEAEIAALEG [Core_INII-es_EEEE], the interaction score with Core_INII-es_KKKK turned out to be 1.29.
